{"source": "the Human Domainome abundance scans (Beltran et al. 2025)", "parents": {"B1": {"name": "POU domain, class 2, transcription factor 1, residues 285 to 354; numbered along this chain, P14859 (parent)", "chain": "LEELEQFAKTFKQRRIKLGFTQGDVGLAMGKLYGNDFSQTTISRFEALNLSFKNMCKLKPLLEKWLNDAE"}}, "note": "± gives the uncertainty stated by the source."}
{"variants_of": "B1", "assay": "abundance fitness (aPCA) (normalised: wild type 0, dead -1); higher = more abundant; growth selection in yeast, the domain comes from the species named", "conditions": "Homo sapiens"}
{"variant": "LTELEQFAKTFKQRRIKLGFTQGDVGLAMGKLYGNDFSQTTISRFEALNLSFKNMCKLKPLLEKWLNDAE", "note": "[E2T]", "abundance fitness": "-0.158 ± 0.032"}
{"variant": "LNELEQFAKTFKQRRIKLGFTQGDVGLAMGKLYGNDFSQTTISRFEALNLSFKNMCKLKPLLEKWLNDAE", "note": "[E2N]", "abundance fitness": "0.109 ± 0.072"}
{"variant": "LMELEQFAKTFKQRRIKLGFTQGDVGLAMGKLYGNDFSQTTISRFEALNLSFKNMCKLKPLLEKWLNDAE", "note": "[E2M]", "abundance fitness": "-0.012 ± 0.026"}
{"variant": "LPELEQFAKTFKQRRIKLGFTQGDVGLAMGKLYGNDFSQTTISRFEALNLSFKNMCKLKPLLEKWLNDAE", "note": "[E2P]", "abundance fitness": "-0.178 ± 0.039"}
{"variant": "LVELEQFAKTFKQRRIKLGFTQGDVGLAMGKLYGNDFSQTTISRFEALNLSFKNMCKLKPLLEKWLNDAE", "note": "[E2V]", "abundance fitness": "-0.067 ± 0.045"}
{"variant": "LIELEQFAKTFKQRRIKLGFTQGDVGLAMGKLYGNDFSQTTISRFEALNLSFKNMCKLKPLLEKWLNDAE", "note": "[E2I]", "abundance fitness": "-0.029 ± 0.06"}
{"variant": "LKELEQFAKTFKQRRIKLGFTQGDVGLAMGKLYGNDFSQTTISRFEALNLSFKNMCKLKPLLEKWLNDAE", "note": "[E2K]", "abundance fitness": "0.053 ± 0.037"}
{"variant": "LWELEQFAKTFKQRRIKLGFTQGDVGLAMGKLYGNDFSQTTISRFEALNLSFKNMCKLKPLLEKWLNDAE", "note": "[E2W]", "abundance fitness": "-0.043 ± 0.029"}
{"variant": "LSELEQFAKTFKQRRIKLGFTQGDVGLAMGKLYGNDFSQTTISRFEALNLSFKNMCKLKPLLEKWLNDAE", "note": "[E2S]", "abundance fitness": "-0.057 ± 0.031"}
{"variant": "LFELEQFAKTFKQRRIKLGFTQGDVGLAMGKLYGNDFSQTTISRFEALNLSFKNMCKLKPLLEKWLNDAE", "note": "[E2F]", "abundance fitness": "-0.009 ± 0.036"}
{"variant": "LRELEQFAKTFKQRRIKLGFTQGDVGLAMGKLYGNDFSQTTISRFEALNLSFKNMCKLKPLLEKWLNDAE", "note": "[E2R]", "abundance fitness": "-0.013 ± 0.03"}
{"variant": "LYELEQFAKTFKQRRIKLGFTQGDVGLAMGKLYGNDFSQTTISRFEALNLSFKNMCKLKPLLEKWLNDAE", "note": "[E2Y]", "abundance fitness": "-0.046 ± 0.057"}
{"variant": "LGELEQFAKTFKQRRIKLGFTQGDVGLAMGKLYGNDFSQTTISRFEALNLSFKNMCKLKPLLEKWLNDAE", "note": "[E2G]", "abundance fitness": "-0.303 ± 0.1"}
{"variant": "LQELEQFAKTFKQRRIKLGFTQGDVGLAMGKLYGNDFSQTTISRFEALNLSFKNMCKLKPLLEKWLNDAE", "note": "[E2Q]", "abundance fitness": "-0.043 ± 0.037"}
{"variant": "LHELEQFAKTFKQRRIKLGFTQGDVGLAMGKLYGNDFSQTTISRFEALNLSFKNMCKLKPLLEKWLNDAE", "note": "[E2H]", "abundance fitness": "-0.175 ± 0.057"}
{"variant": "LDELEQFAKTFKQRRIKLGFTQGDVGLAMGKLYGNDFSQTTISRFEALNLSFKNMCKLKPLLEKWLNDAE", "note": "[E2D]", "abundance fitness": "-0.013 ± 0.17"}
{"variant": "LCELEQFAKTFKQRRIKLGFTQGDVGLAMGKLYGNDFSQTTISRFEALNLSFKNMCKLKPLLEKWLNDAE", "note": "[E2C]", "abundance fitness": "-0.152 ± 0.051"}
{"variant": "LEHLEQFAKTFKQRRIKLGFTQGDVGLAMGKLYGNDFSQTTISRFEALNLSFKNMCKLKPLLEKWLNDAE", "note": "[E3H]", "abundance fitness": "-0.036 ± 0.044"}
{"variant": "LEVLEQFAKTFKQRRIKLGFTQGDVGLAMGKLYGNDFSQTTISRFEALNLSFKNMCKLKPLLEKWLNDAE", "note": "[E3V]", "abundance fitness": "-0.118 ± 0.033"}
{"variant": "LEALEQFAKTFKQRRIKLGFTQGDVGLAMGKLYGNDFSQTTISRFEALNLSFKNMCKLKPLLEKWLNDAE", "note": "[E3A]", "abundance fitness": "-0.143 ± 0.05"}
{"variant": "LETLEQFAKTFKQRRIKLGFTQGDVGLAMGKLYGNDFSQTTISRFEALNLSFKNMCKLKPLLEKWLNDAE", "note": "[E3T]", "abundance fitness": "-0.146 ± 0.031"}
{"variant": "LEYLEQFAKTFKQRRIKLGFTQGDVGLAMGKLYGNDFSQTTISRFEALNLSFKNMCKLKPLLEKWLNDAE", "note": "[E3Y]", "abundance fitness": "-0.186 ± 0.047"}
{"variant": "LEILEQFAKTFKQRRIKLGFTQGDVGLAMGKLYGNDFSQTTISRFEALNLSFKNMCKLKPLLEKWLNDAE", "note": "[E3I]", "abundance fitness": "-0.117 ± 0.063"}
{"variant": "LEGLEQFAKTFKQRRIKLGFTQGDVGLAMGKLYGNDFSQTTISRFEALNLSFKNMCKLKPLLEKWLNDAE", "note": "[E3G]", "abundance fitness": "-0.201 ± 0.063"}
{"variant": "LEKLEQFAKTFKQRRIKLGFTQGDVGLAMGKLYGNDFSQTTISRFEALNLSFKNMCKLKPLLEKWLNDAE", "note": "[E3K]", "abundance fitness": "-0.137 ± 0.035"}
{"variant": "LENLEQFAKTFKQRRIKLGFTQGDVGLAMGKLYGNDFSQTTISRFEALNLSFKNMCKLKPLLEKWLNDAE", "note": "[E3N]", "abundance fitness": "-0.07 ± 0.078"}
{"variant": "LECLEQFAKTFKQRRIKLGFTQGDVGLAMGKLYGNDFSQTTISRFEALNLSFKNMCKLKPLLEKWLNDAE", "note": "[E3C]", "abundance fitness": "-0.202 ± 0.046"}
{"variant": "LEFLEQFAKTFKQRRIKLGFTQGDVGLAMGKLYGNDFSQTTISRFEALNLSFKNMCKLKPLLEKWLNDAE", "note": "[E3F]", "abundance fitness": "-0.159 ± 0.039"}
{"variant": "LESLEQFAKTFKQRRIKLGFTQGDVGLAMGKLYGNDFSQTTISRFEALNLSFKNMCKLKPLLEKWLNDAE", "note": "[E3S]", "abundance fitness": "-0.105 ± 0.024"}
{"variant": "LERLEQFAKTFKQRRIKLGFTQGDVGLAMGKLYGNDFSQTTISRFEALNLSFKNMCKLKPLLEKWLNDAE", "note": "[E3R]", "abundance fitness": "-0.207 ± 0.036"}
{"variant": "LEPLEQFAKTFKQRRIKLGFTQGDVGLAMGKLYGNDFSQTTISRFEALNLSFKNMCKLKPLLEKWLNDAE", "note": "[E3P]", "abundance fitness": "-0.569 ± 0.043"}
{"variant": "LEWLEQFAKTFKQRRIKLGFTQGDVGLAMGKLYGNDFSQTTISRFEALNLSFKNMCKLKPLLEKWLNDAE", "note": "[E3W]", "abundance fitness": "-0.305 ± 0.042"}
{"variant": "LEMLEQFAKTFKQRRIKLGFTQGDVGLAMGKLYGNDFSQTTISRFEALNLSFKNMCKLKPLLEKWLNDAE", "note": "[E3M]", "abundance fitness": "-0.089 ± 0.027"}
{"variant": "LEQLEQFAKTFKQRRIKLGFTQGDVGLAMGKLYGNDFSQTTISRFEALNLSFKNMCKLKPLLEKWLNDAE", "note": "[E3Q]", "abundance fitness": "-0.078 ± 0.034"}
{"variant": "FEELEQFAKTFKQRRIKLGFTQGDVGLAMGKLYGNDFSQTTISRFEALNLSFKNMCKLKPLLEKWLNDAE", "note": "[L1F]", "abundance fitness": "0.007 ± 0.044"}
{"variant": "CEELEQFAKTFKQRRIKLGFTQGDVGLAMGKLYGNDFSQTTISRFEALNLSFKNMCKLKPLLEKWLNDAE", "note": "[L1C]", "abundance fitness": "-0.065 ± 0.34"}
{"variant": "DEELEQFAKTFKQRRIKLGFTQGDVGLAMGKLYGNDFSQTTISRFEALNLSFKNMCKLKPLLEKWLNDAE", "note": "[L1D]", "abundance fitness": "-0.145 ± 0.15"}
{"variant": "AEELEQFAKTFKQRRIKLGFTQGDVGLAMGKLYGNDFSQTTISRFEALNLSFKNMCKLKPLLEKWLNDAE", "note": "[L1A]", "abundance fitness": "-0.201 ± 0.22"}
{"variant": "WEELEQFAKTFKQRRIKLGFTQGDVGLAMGKLYGNDFSQTTISRFEALNLSFKNMCKLKPLLEKWLNDAE", "note": "[L1W]", "abundance fitness": "-0.02 ± 0.051"}
{"variant": "KEELEQFAKTFKQRRIKLGFTQGDVGLAMGKLYGNDFSQTTISRFEALNLSFKNMCKLKPLLEKWLNDAE", "note": "[L1K]", "abundance fitness": "0.001 ± 0.11"}
{"variant": "EEELEQFAKTFKQRRIKLGFTQGDVGLAMGKLYGNDFSQTTISRFEALNLSFKNMCKLKPLLEKWLNDAE", "note": "[L1E]", "abundance fitness": "-0.124 ± 0.11"}
{"variant": "SEELEQFAKTFKQRRIKLGFTQGDVGLAMGKLYGNDFSQTTISRFEALNLSFKNMCKLKPLLEKWLNDAE", "note": "[L1S]", "abundance fitness": "-0.055 ± 0.28"}
{"variant": "NEELEQFAKTFKQRRIKLGFTQGDVGLAMGKLYGNDFSQTTISRFEALNLSFKNMCKLKPLLEKWLNDAE", "note": "[L1N]", "abundance fitness": "-0.074 ± 0.096"}
{"variant": "VEELEQFAKTFKQRRIKLGFTQGDVGLAMGKLYGNDFSQTTISRFEALNLSFKNMCKLKPLLEKWLNDAE", "note": "[L1V]", "abundance fitness": "-0.026 ± 0.058"}
